# Earlier results as cited in patent US11963996B2, “Method of treating knee pain” (ORTHOTROPHIX, Inc., priority 2018, dated 2024).
# Columns and labels:
# [1] = test system: human osteoblastic mesenchymal stem cells; conditions: cited from earlier work
# OA patients = conditions: human, in vivo; cited from earlier work
# subjects with knee OA = conditions: vs placebo, cited from earlier work
molecule,measurement,setting,value
rat orthologue: TPX-100 orthologue PDLLVRGDNDVPPFSGDGQHFMH (Rat/Mouse),Tritium-thymidine incorporation,[1],promote tritium-thymidine incorporation
N#Cc1c(N(CC(=O)[O-])CC(=O)[O-])sc(C(=O)[O-])c1CC(=O)[O-].[Sr+2].[Sr+2] [strontium ranelate],Risk of myocardial infarction,OA patients,increase the risk of myocardial infarction
"FGF-18: Fibroblast Growth Factor-18, a.k.a. Sprifermin, candidate DMOAD, a putative chondrocyte growth factor (protein, UniProt O76093 28-207, looked up, sprifermin, Fibroblast Growth Factor-18, a.k.a; Sprifermin, candidate DMOAD, a putative chondrocyte growth factor) Fibroblast growth factor 18: EENVDFRIHVENQTRARDDVSRKQLRLYQLYSRTSGKHIQVLGRRISARGEDGDKYAQLLVETDTFGSQVRIKGKETEFYLCMNRKGKLVGKPDGTSKECVFIEKVLENNYTALMSAKYSGWYVGFTKKGRPRKGPKTRENQQDVHFMKRYPKGQPELQKPFKYTTVTKRSRRIRPTHPA",Clinical benefit (WOMAC),subjects with knee OA; 24 months,no difference in clinical benefit was detected in any treatment group when compared with placebo
same,Clinical benefit,subjects with knee OA; 36 months,failed to demonstrate clinical benefit compared with the placebo-treated group
same,Tibiofemoral cartilage thickness by MRI,"subjects with knee OA; three once-weekly IA injections, repeated at months 6, 12, 18, 24 months",dose-dependent increases in tibiofemoral cartilage thickness compared with the placebo group
